What all share (conditions): both partners purified
The target of one assay is αBAX1. The assay can be described thus: BLI; Octet RED96; biotinylated BCL-2 family proteins (25 nM) immobilised on streptavidin biosensors, designed protein in solution; 10 mM Hepes pH 7.4, 150 mM NaCl, 3 mM EDTA, 0.05% surfactant P20, 0.5% nonfat dry milk; titrations in triplicate, 1:1 binding model.
Assay [1] concerns the target T1, BAK-CDP02 (BAK-targeting computationally designed protein 02 of 11).
T1 construct: Cloned into pET29b; source: E. coli, purified (Ni-NTA, SEC)
The description is as above.

The next assay has as its target T2, αBAK2.
T2 construct: Form used for BLI and, as far as told, for the liposome and cytochrome c assays; source: E. coli, purified
The assay is described as above.

A further assay has as its target T3, αBAK1.
T3 construct: source: E. coli, purified
The assay is described as above.

The next assay addresses MBP-BIM-BH3. Described as above.
In the next assay the target is BCL-XL, biotinylated (UniProt Q07817-1 1-233, biotin). As to the kind of experiment: BLI; Octet RED96; biotinylated BCL-2 proteins (25 nM) immobilised on streptavidin biosensors; 10 mM Hepes pH 7.4, 150 mM NaCl, 3 mM EDTA, 0.05% surfactant P20, 0.5% nonfat dry milk; multiple-concentration titrations, 1:1 binding model. (In BLI a coated tip is dipped into the sample, and binding shifts an interference pattern.)

Another assay concerns the target BCL-2, biotinylated (UniProt P10415 1-239, biotin). The description is as above.

BCL-XL, biotinylated, sequence (Q07817 whole entry): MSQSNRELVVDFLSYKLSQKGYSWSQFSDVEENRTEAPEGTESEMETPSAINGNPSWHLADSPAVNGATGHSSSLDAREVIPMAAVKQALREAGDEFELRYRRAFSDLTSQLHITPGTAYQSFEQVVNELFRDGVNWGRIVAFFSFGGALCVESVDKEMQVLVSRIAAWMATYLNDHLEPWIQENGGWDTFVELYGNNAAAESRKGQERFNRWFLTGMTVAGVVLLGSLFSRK
BCL-2, biotinylated, sequence (P10415 whole entry): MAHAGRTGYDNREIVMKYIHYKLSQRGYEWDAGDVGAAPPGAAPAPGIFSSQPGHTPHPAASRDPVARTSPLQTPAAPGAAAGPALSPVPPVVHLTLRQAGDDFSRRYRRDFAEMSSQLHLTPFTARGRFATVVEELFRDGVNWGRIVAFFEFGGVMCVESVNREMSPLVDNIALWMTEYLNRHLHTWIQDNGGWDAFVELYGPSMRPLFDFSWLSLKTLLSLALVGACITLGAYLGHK

B1: BFL-1 (natural protein)
chain: MTDCEFGYIYRLAQDYLQCVLQIPQPGSGPSKTSRVLQNVAFSVQKEVEKNLKSCLDNVNVVSVDTARTLFNQVMEKEFEDGIINWGRIVTIFAFEGILIKKLLRQQIAPDVDTYKEISYFVAEFIMNNTGEWIRQNGGWENGFVKKFEPKSG
modifications: biotin
With B1, binding with αBAX1 was characterised by a dissociation constant (Kd) of 5 nM.

B2: MBP-BAK 16-186, biotinylated (Avi tag, 6-histidine tag) (domain or fragment)
chain: EPALPSASEEQVAQDTEEVFRSYVFYRHQQEQEAEGVAAPADPEMVTLPLQPSSTMGQVGRQLAIIGDDINRRYDSEFQTMLQHLQPTAENAYEYFTKIATSLFESGINWGRVVALLGFGYRLALHVYQHGLTGFLGQVTRFVVDFMLHHCIARWIAQRGGWVAALNLGNGLEGLNDIFEAQKIEWHEGSHHHHHH
modifications: biotin on the Avi tag (enzymatic, BirA)
For B2, the equilibrium dissociation constant (Kd) (as a rule, the constant that tells how readily two partners part at equilibrium) worked out at 60 nM in assay [1], 0.4 nM in the assay with αBAK2, 7 nM with αBAK1 and 4000 ± 2000 nM with MBP-BIM-BH3.

B3: MBP-BidBH3 (domain or fragment, UniProt P55957 1-195, looked up)
chain: MDCEVNNGSSLRDECITNLLVFGFLQSCSDNSFRRELDALGHELPVLAPQWEGYDELQTDGNRSSHSRLGRIEADSESQEDIIRNIARHLAQVGDSMDRSIPPGLVNGLALQLRNTSRSEEDRNRDLATALEQLLQAYPRDMEKEKTMLVLALLLAKKVASHTPSLLRDVFHTTVNFINQNLRTYVRSLARNGMD
notes: BH3 peptide of the BH3-only protein BID, fused to MBP
Take B3: the Kd with BCL-XL, biotinylated was found to be 2.3 ± 0.4 nM; in the assay with BCL-2, biotinylated, 47 ± 5 nM.

The record behind these values is article PMC12412652 (Science Advances, 2025).
